Starred links: 1 amine or outer side, 2 acyl side, 3 side chain; linkers in the order of their positions; H or OH if unused. Positions of bridges follow the written chain, without caps; N, C: chain ends. Non-standard residues stand in square brackets, D forms with d. Primed or numbered codes have the meaning given here. PyrS2″ = (S)-3-amino-1-((pent-4-en-1-yloxy)carbonyl)pyrrolidine-3-carboxylic acid (stapling residue), C=CCCCOC(=O)N1CC[C@@](N[*:1])(C(=O)[*:2])C1; B5(18) = 2,2-bis(4-pentenyl)glycine (2-amino-2-(pent-4-en-1-yl)hept-6-enoic acid), stitching residue, C=CCCCC(CCCC=C)(N[*:1])C(=O)[*:2]; TfeGA = (S)-2-amino-3-((carboxymethyl)(2,2,2-trifluoroethyl)amino)propanoic acid, O=C([C@H](CN(CC(=O)[*:3])CC(F)(F)F)N[*:1])[*:2]; PyrS2 = (S)-3-amino-1-((pent-4-en-1-yloxy)carbonyl)pyrrolidine-3-carboxylic acid, C=CCCCOC(=O)N1CC[C@@](N[*:1])(C(=O)[*:2])C1; PyrS3 = (S)-3-amino-1-((hex-5-en-1-yloxy)carbonyl)pyrrolidine-3-carboxylic acid, C=CCCCCOC(=O)N1CC[C@@](N[*:1])(C(=O)[*:2])C1; B5(7) = 2-amino-2-(pent-4-en-1-yl)hept-6-enoic acid, two olefinic side chains, C=CCCCC(CCCC=C)(N[*:1])C(=O)[*:2]; B5(3) = 2,2-bis(4-pentenyl)glycine (stitching residue), C=CCCCC(CCCC=C)(N[*:1])C(=O)[*:2]; Phe(2-Cl) = N[C@@H](Cc1ccccc1Cl)C(=O)O; Bta = N[C@@H](Cc1csc2ccccc12)C(=O)O; αAllylPro = C=CC[C@@]1(C(=O)O)CCCN1; tBuAla = CC(C)(C)C[C@H](N)C(=O)O; 3Thi = N[C@@H](Cc1ccsc1)C(=O)O; S8 = C=CCCCCCC[C@](C)(N)C(=O)O; hSer = N[C@@H](CCO)C(=O)O
Target: T1, B-cat-Halo (NanoBRET construct expressed in HEK293 cells) (UniProt P35222 1-781, HaloTag NanoBRET 618 Ligand bound in the assay)
T1 sequence (looked up): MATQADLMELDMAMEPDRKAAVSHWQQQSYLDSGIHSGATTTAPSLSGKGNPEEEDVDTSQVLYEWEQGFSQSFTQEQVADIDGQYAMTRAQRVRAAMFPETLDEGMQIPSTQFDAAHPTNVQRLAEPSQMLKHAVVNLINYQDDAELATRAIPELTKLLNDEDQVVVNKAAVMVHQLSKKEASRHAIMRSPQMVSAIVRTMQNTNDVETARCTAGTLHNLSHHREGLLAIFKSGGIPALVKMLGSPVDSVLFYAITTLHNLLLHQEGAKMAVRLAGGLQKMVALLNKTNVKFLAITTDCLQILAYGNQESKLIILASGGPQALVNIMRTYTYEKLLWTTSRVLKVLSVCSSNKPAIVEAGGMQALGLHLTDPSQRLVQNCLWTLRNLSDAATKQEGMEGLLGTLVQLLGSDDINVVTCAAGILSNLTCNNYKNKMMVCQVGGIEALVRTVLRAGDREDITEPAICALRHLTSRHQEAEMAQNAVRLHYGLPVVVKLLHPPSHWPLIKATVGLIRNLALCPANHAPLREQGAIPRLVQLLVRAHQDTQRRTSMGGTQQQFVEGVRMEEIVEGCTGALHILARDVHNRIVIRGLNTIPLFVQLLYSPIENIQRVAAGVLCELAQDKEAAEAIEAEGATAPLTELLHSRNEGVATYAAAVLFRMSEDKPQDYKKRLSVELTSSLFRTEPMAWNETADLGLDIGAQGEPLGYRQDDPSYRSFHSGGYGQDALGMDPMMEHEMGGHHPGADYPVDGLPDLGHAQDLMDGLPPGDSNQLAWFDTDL
Test: cell-based or functional assay

Point of comparison: Ac-[αAllylPro]D[tBuAla][B5(7)]DDAAFN[PyrS3][3Thi][Bta]Q-NH2 (staple 1-4, 4-11) [I-768], “NanoBRET Abs IC50” value 31.4 µM. Against it:
- Ac-[αAllylPro]D[tBuAla][B5(7)]DDAAFQ[PyrS2][3Thi][Bta]Q-NH2 (staple 1-4, 4-11) [I-763] — within 1.5-fold, 21.3 µM
- Ac-[αAllylPro]D[tBuAla][B5(7)]DDAAFQ[PyrS2][3Thi][Bta]H-NH2 (staple 1-4, 4-11) [I-771] — within 1.5-fold, 37.3 µM
- Ac-[αAllylPro]D[tBuAla][B5(7)]D[TfeGA]AAFN[PyrS2][3Thi][Bta]H-NH2 (staple 1-4, 4-11) [I-770] — 2.3-fold lower, 13.7 µM
- Ac-[αAllylPro]D[tBuAla][B5(7)]DDAAFQ[PyrS2][3Thi][Bta]H-NH2 (staple 1-4, 4-11) [I-772] — not separable, > 20 µM
- Ac-[αAllylPro]D[tBuAla][B5(7)]D[TfeGA]AAFN[PyrS2][3Thi][Bta]H-NH2 (staple 1-4, 4-11) [I-769] — 2.4-fold lower, 13 µM

Target: T2, beta-catenin in DLD1 TCF/LEF luciferase reporter cells (UniProt P35222 1-781)
T2 sequence (looked up): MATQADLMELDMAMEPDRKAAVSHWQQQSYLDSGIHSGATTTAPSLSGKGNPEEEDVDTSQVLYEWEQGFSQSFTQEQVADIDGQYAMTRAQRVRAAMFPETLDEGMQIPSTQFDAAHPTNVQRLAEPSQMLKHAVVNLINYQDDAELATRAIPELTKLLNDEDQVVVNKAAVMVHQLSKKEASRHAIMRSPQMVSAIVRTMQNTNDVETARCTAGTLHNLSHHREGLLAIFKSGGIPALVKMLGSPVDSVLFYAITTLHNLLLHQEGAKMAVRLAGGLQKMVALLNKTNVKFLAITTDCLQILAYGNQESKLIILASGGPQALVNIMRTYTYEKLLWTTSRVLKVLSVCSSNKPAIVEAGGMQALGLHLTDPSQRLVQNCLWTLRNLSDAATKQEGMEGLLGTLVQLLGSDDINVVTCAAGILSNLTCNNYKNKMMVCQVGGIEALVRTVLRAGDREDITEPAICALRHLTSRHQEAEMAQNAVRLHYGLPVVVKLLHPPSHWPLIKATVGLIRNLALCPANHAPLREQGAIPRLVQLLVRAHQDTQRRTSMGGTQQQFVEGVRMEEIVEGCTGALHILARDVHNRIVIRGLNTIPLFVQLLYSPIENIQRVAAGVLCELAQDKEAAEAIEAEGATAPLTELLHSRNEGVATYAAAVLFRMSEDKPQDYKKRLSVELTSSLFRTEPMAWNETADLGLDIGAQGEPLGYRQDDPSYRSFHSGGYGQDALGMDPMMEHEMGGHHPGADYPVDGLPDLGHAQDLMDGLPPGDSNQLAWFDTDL
Test: cell-based or functional assay

Point of comparison: Ac-[αAllylPro]D[tBuAla][B5(3)]D[TfeGA]AAF[hSer][S8][Phe(2-Cl)][Bta][hSer]-NH2 (staple 1-4, 4-11) [I-1000], “DLD1 reporter assay Abs IC50” value 8 µM. Against it:
- Ac-[αAllylPro]D[tBuAla][B5(18)]DDAAFT[PyrS2″][Phe(2-Cl)][Bta]S-NH2 (staple 1-4, 4-11) [I-1015] — within 1.5-fold, 9 µM
- Ac-[αAllylPro]D[tBuAla][B5(18)]D[TfeGA]ALFN[PyrS2″][Phe(2-Cl)][Bta]Q-NH2 (staple 1-4, 4-11) [I-1002] — higher, > 20 µM
- Ac-[αAllylPro]D[tBuAla][B5(18)]D[TfeGA]FAFN[PyrS2″][Phe(2-Cl)][Bta]Q-NH2 (staple 1-4, 4-11) [I-1008] — 1.6-fold higher, 13 µM
- Ac-[αAllylPro]D[tBuAla][B5(3)]D[TfeGA]AAFS[S8][Phe(2-Cl)][Bta][hSer]-NH2 (staple 1-4, 4-11; also: later eluting isomer) [I-999] — within 1.5-fold, 11.1 µM
- Ac-[αAllylPro]D[tBuAla][B5(18)]D[TfeGA]LAFN[PyrS2″][Phe(2-Cl)][Bta]Q-NH2 (staple 1-4, 4-11) [I-1007] — 2.4-fold lower, 3.3 µM
- Ac-[αAllylPro]D[tBuAla][B5(18)]DNAAFT[PyrS2″][Phe(2-Cl)][Bta]S-NH2 (staple 1-4, 4-11) [I-1016] — 2.7-fold higher, 21.4 µM
- Ac-[αAllylPro]D[tBuAla][B5(18)]DDAAFS[PyrS2″][Phe(2-Cl)][Bta]Q-NH2 (staple 1-4, 4-11) [I-1017] — higher, > 20 µM
- Ac-[αAllylPro]D[tBuAla][B5(18)]D[TfeGA]KAFN[PyrS2″][Phe(2-Cl)][Bta]Q-NH2 (staple 1-4, 4-11) [I-1011] — higher, > 20 µM
- Ac-[αAllylPro]D[tBuAla][B5(18)]DDAAFS[PyrS2″][Phe(2-Cl)][Bta]S-NH2 (staple 1-4, 4-11) [I-1019] — within 1.5-fold, 8.3 µM
- Ac-[αAllylPro]D[tBuAla][B5(3)][3Thi][TfeGA]AAFN[PyrS2″]D[Bta]Q-NH2 (staple 1-4, 4-11) [I-1001] — higher, > 20 µM
- Ac-[αAllylPro]D[tBuAla][B5(18)]D[TfeGA]ASFN[PyrS2″][Phe(2-Cl)][Bta]Q-NH2 (staple 1-4, 4-11) [I-1004] — higher, > 20 µM

— patent US20240116985A1 (published 2024)
